The target of one assay is T1, Fba peptide (Candida albicans).
T1 construct: Synthetic 14-mer (GenScript) from the N-terminus of C. albicans fructose-bisphosphate aldolase
T1 peptide: YGKDVKDLFDYAQEC
The assay is described as follows: specificity listed in table; hybridomas screened by anti-peptide ELISA. (In general: ELISA stands for enzyme-linked immunosorbent assay.)

The target of another assay is T2, Met6 peptide (Candida albicans).
T2 construct: Synthetic 14-mer (GenScript) from the N-terminus of the C. albicans Met6 cell wall protein
T2 peptide: PRIGGQRELKKITEC
The assay is described as above.

B1: 2D5F7 (antibody, V domains shown)
VH: QVQLQQSAAELARPGASVKMSCKASGYTFSSYTMHWVKQRPGQGLEWIGYINPSSGYTDYNQKFKDKTTLTADKSSSTAYMQLSSLTSEDSAVYYCARLYDNYDYYAMDYWGQGTSVTVSS
VL: DIVMSQSPSSLAVSAGEKVTMSCKSSQSLLNSRIRKNYLAWYQQKPGQSPKLLIYWASTRESGVPDRFTGSGSGTDFTLTISSVQADDLAVYYCKQSYNLLTFGAGTKLELK
notes: Mouse hybridoma mAb, IgG2b; The entries are 140 AA and 132 AA and their DNA starts with ATG, so they may include the leader peptide; The limits are printed only as drawings and no residues were cut
Consider B1, for which the binding result with Fba peptide was “binds”.

B2: 2B10C1 (antibody, V domains shown)
VH: QVQLQQPGAEVVRPGASVKVSCKASGYTVSSYWMSWVKQRPEQGLEWIGRIDPYDSETHYNQKFKDKAILTVDKSSSTAYMQLSSLTSEDSAVYYCARTAASFDYWGQGTTLTVSS
VL: DVVMTQTPLSLPVSLGDQASISCRSSQSLVHSNGNSYLHWYLQKPGQSPKLLIYKVSNRFSGVPDRFSGSGSGTDFTLNISRVEAEDLGVYFCSQSTHVPFTFGSGTKLEIK
notes: Mouse hybridoma mAb, IgG1; The entries are 135 AA and 131 AA and their DNA starts with ATG, so they may include the leader peptide; The limits are printed only as drawings and no residues were cut; also called 2810C1
Consider B2, for which, in the assay with Met6 peptide, the binding result is “binds”.
